According to the DeepSol protein solubility set:

Assay: soluble on expression in E. coli; label from the status in PepcDB or PDB records

Soluble on expression in E. coli, not soluble:
MGSDKIHHHHHHMASFPELPALRRLATLGRSWGLLSDFKYEQTRPDIFYGNLALDTSSLVAALSEDISGAGLNDLKVLDVGGGPGYFAEAFETLGATYFSVEPDVGEMSAAGIDVHGSVRGSGLDLPFLPDSFDVVYSSNVAEHVSAPWELGEEMLRVTRSGGLAILSYTIWLGPFGGHETGLWEHYVGGEFARDRYTKKHGHPPKNVFGESLFNVSCREGLEWGASVGNAELVAAFPRYHPYWVWWMVKVPVLREFAVSNLVLVFKKH
MLHLIVADSELETIPEEMLDDPGVRRFAKKRNKRVDRMILDSNYMHAFIDKYYPGESKRRGRPDIIYILLEMAQESILNRKNLLRTYIHTRNDFVIKISPITRMPKSYNRFIGLFEDLFEKEIITNNGKTLLSLERMKLDELLESLKKDRTILLHPKGEFKKPSEFISTEDIAAIIGGFSEGDFRSDVSNIPEKYSIFRDELTIWSVGLEIVASYERAIGLLLEHHHHHH
WSQNEGKSVIPVQITKENSAYLADALLLDTSKEAQDAVENHSMMLSAKELFPVLETMKQIRQYGDSTDKNYGYRDEGSMFNSGNTAMYINGVWASKLIDEKIDACYAPFPGKNGSTIASSSVCLGYIVGNTGNQETMDASVEFLKYMLSEKVQKRILLETGQMPSSPKIHLEEYKEQIPRMCNAVEAIRGADRIIEVPDNLWTADQLENFRNQIMEVLNGTLDEEQFCTNLYQ
MSASLAILTIGVVPMSEVLPLLTEYIDEQHITHHSLLGKMSREDVMADYAVEPGDDPLLTLLNDNQIAHVSRQKVERDLQSVVEVLDNQGYDVIILMSTAAIKSMAARNSILLEPLRIIPPLVASIVDGHQVGVIVPVAELLAAQEKKWQVLQMPPVYSLANPVHGSEQQLIDAGQALLDQGADVIMLDCLGFHQRHRDILQQALDVPVLLSNVLIARLASELLV
MSLKPSLDELESLLIARHTPNIHNKLKKGKVAILGLGGLGSNIAISLARIGVGELLLIDYDVVEPSNLNRQQYFIDDIGKLKTDAMIENIKKINPFIKLNKRDIFLNKNNMDTIKDSDLIIEAFDDASCKAQVCNYVLINLKDKYLIASSGMAGYYDSNIITTKKIKDRFYICGDFVNEAKFGEEGHHHHHH
MGDICETVEATFHGVAYLLTVSTIEGETLCVEVEQKSDCSRWRGDFTSRYIEDITAKTGNFKKFPVFVKMLLSALKQASDSVFVDLLTYQDLEVLKSRKAGGQAPPPRTQPPNNKRYLIMTYAAEFDRVHYPLPLLFEENPDPQHLKRIISQLRSEVEGLQVEAGNRRGGEVSAELRRLREENAALQRQLKQMERSGSGVGAGAESSEARELARELRTVRKERDLLQARVEAAEAELERERGLHRRELRRRAKEQQELVDELGRCKEQIRELKMRIRQLTEDLEARDRRMNSTDRIRSVYARGSNDGSTSGVAPRRPSSGGRGPSSNYMAPTRGADSRSNSRGRGTSSAERSRPNSAPIGGPRPRFDPTEYVRQRKERESAAVGGRRSNAPTPPRSAGTSRASSVVGSRPASAERLPPIRTASPTNSRPSSTERYRPGSGGPPGRTSAGGSRGAADRAGARGPDPYAPRSRGASPSGRATAWGEPGASGGGAGGWSKFPGGGGGGVGGSGQRISSNSPRSMSPARALAEVKQKLSTFVAGRGGSLQGDDASSAHGEHMSQSSKSQVFEDATAEIADIDSRLHALQDFLRMAKTSSTSTSTTQA
MKDELIKKLSRPEWDFQYDSEKEVLRIEQKDSKKGINVSLPGVVAKWEVNKEKAIEEVAYYVQEALIAMHKEENSGAKILPVIRSTSFPKQAEEGNPFIMTDHTAETRIYYALDSNKTYRLIDERLLQKLELTEQQVREMALFNARSLGYEFKQDTVAGNTFYFLNTNDGYDATRILNESLLQSMREKISGDMVVAVPHQDVLIIADIVNEIGYDIIAQMTMKFFAEGHVPITSLSFVYEDGEFEPIFILAKNRKKTDGKEKG
KIGERMLGTDPVTGESVVAKMGRYGAMVQKGRTDKENGIKAQFASLQPGQSIESITLEEALELFLLPKKLGQYEDADVMVAVGRFGPYIKHAGKFVGLPKDTEPLSVSLDDAIKYIADKREKEEKSLIKGFAEDPEMEIRTGRFGVYIKYKGKNYKVPKTVEDPEKLTLEECLKYVEEGETKPAKGKKKAPAKKTSAKKTAKK
MQTYIETSRLILRDWKEEDIPAFARMNADPHVMEFFLHPLTPEESLAFYHRIQNEFQTCGFGLYAVERKEDHAFMGYTGLHQITFDVDFAPGIEIGWRLAHEYWGRGYAPEAATACLEYARKSLDIKELFSFTSLPNQRSERVMQKIGMERVREFGHPLVPAEHPLHRHVLYYIDLRKHSS
MGSDKIHHHHHHMERVHVDIRQLQFFAEIVRYGSFTKAAERLHVAQPAVSMAMKKLEEELDLILFNRQERRISLTAEGEIFLRHAEKILDEVKSAETEMEELRGLAKGEVRVGIPPMMSAYFFPEIIRDFSNSYPDLHLTVSGEGASKIQKMIIDGELDMGVVAGASFPETLEVRRFLREEVIVCVPRSHPLASRGSLTLHEFARHPLIFYREGYYLRELILDVLRGAGLSPTIRFETNLYTLVKSLVQKGMGISVFLRMVVAEDDDLTAISLDPPLFLDLLIAWKKHGYLSRANRAFADYLLEKGSSAAL
MGSDKIHHHHHHYGLGRSWAPGLSQLDGVPRLGGTLDAPLVLNDASELSATPIHIHTRPAAHGDALIEAFRAELTAAQAEDRPVCVSAARHSMGGQSLPRGGHAITVDNAWIEPDTANQTYRVNGGARWRDVIAALDPIGFSPAVMQSNHDFGVAATFSVNAHGWPVPYGPMGATVREIRMVLPGGDLVTASRTENTDLFNLAVGGYGLAGLIVDMEVDMVPNQRLAPSFTPMPAADFPAAFRAAVDDPTMPMGYGRLNVTRESLFEEALLVTYSPTPDQSDIPPAIESGWLSYAASYLYRGQVGREGMKDWRWWVEADLGPRLAGESTRNSLMNEPVITLDDRDPTRVDILHEYFVPFDAFDGFLEACRDVIPDAFVEFLNVTLRFVDSDTDSLLPHSPTPRIAAVMSFTQEKTTRAEADHARMTRALIDRIVAIGGTYYLPYRPHATLDQFTAAYPNAPEFAAAKRALDPTLTLRNNLWDSYLADL
MEYLFLRRKKTRYTSVRQKTLLYRAASRRWEKEFALRTDVRRIDALIYKGILYLMEVRQVFLDSSLSLKTLSAMLETNQTYLSNVVNRYFGCNLKELVNTYRVEYAKELLRSGRCPIEEVPVRSGFGSKSPFYVAFGKVTGMTPRQYVAHERNPLKQEENN

Soluble on expression in E. coli, soluble:
ETRECKEALAKSEMNVNMKCQLPNFTAETPIQNVILHEHHIFLGATNYIYVLNEEDLQKVAEYKTGPVLEHPDCFPCQDCSSKANLSGGVWKDNINMALVVDTYYDDQLISCGSVNRGTCQRHVFPHNHTADIQSEVHCIFSPQIEEPSQCPDCVVSALGAKVLSSVKDRFINFFVGNTINSSYFPDHPLHSISVRRLKETKDGFMFLTDQSYIDVLPEFRDSYPIKYVHAFESNNFIYFLTVQRETLDAQTFHTRIIRFCSINSGLHSYMEMPLECILTEKRKKRSTKKEVFNILQAAYVSKPGAQLARQIGASLNDDILFAVFAQSKPDSAEPMDRSAMCAFPIKYVNDFFNKIVNKNNVRCLQHFYGPNHEHCFNRTLLRNSSGCEARRDEYRTEFTTALQRVDLFMGQFSEVLLTSISTFIKGDLTIANLGTSEGRFMQVVVSRSGPSTPHVNFLLDSHPVSPEVIVEHTLNQNGYTLVITGKKITKIPLNGLGCRHFQSCSQCLSAPPFVQCGWCHDKCVRSEECLSGTWTQQICLPAIYKVFPNSAPLEGGTRLTICGWDFGFRRNNKFDLKKTRVLLGNESCTLTLSESTMNTLKCTVGPAMNKHFNMSIIISNGHGTTQYSTFSYVDPVITSISPKYGPMAGGTLLTLTGNYLNSGNSRHISIGGKTCTLKSVSNSILECYTPAQTISTEFAVKLKIDLANRETSIFSYREDLHHHHHH
SNAMKMSELEKMLKGEHFDGASAEIEALRSQAGRLKLEINQSLDEAERYALQRELFGHLGHKSCVQPPFHCEFGKTIRIGDHTFINMNVVMLDGAPITIGDHVLIGPSTQFYTASHSLDYRRRQAWETICKPIVIEDDVWIGGNVVINQGVTIGARSVVAANSVVNQDVPPDTLVGGTPARILRSLKDPAESMAE
MMIFRFVTTLAASLPLLTFAAPISFSHAKNEAVKIYRDHPVSFYCGCEIRWQGKKGIPDLESCGYQVRKQENRASRIEWEHVVPAWQFGHQLQCWQQGGRKNCTRTSPEFNQMEADLHNLTPAIGEVNGNRSNFSFSQWNGIDGVTYGQCEMQVNFKERTAMPPERARGAIARTYLYMSEQYGLRLSKAQNQLMQAWNNQYPVSEWECVRDQKIEKVQGNSNRFVREQCPN
MGDTDRKLFVLDTNILLHEPFAIFSFQEHDVVIPMTVLEELDRIKDSKRDVARDARVAIRALEDLFKDATPDEISEGIPVSKEKPDQGSISILADFELQETVKAFADKAGDNRILNAVLYLQNKRAPREVVLITKDINMRLRAKGAGVRFVEDYRTDQLIDDIQYLTKGFQQREGDFWSGIDEVESYALGGKTYHKLSREPFDPTFINQYVIDEDSDFAGRVETINEDKLTLLDLSRERMMHRRAWDITPKNIYQAMALDALLDPDIDLVILTGAAGSGKTLLAMAAALEQTIEKGMFDKIIVTRNTPDIGESIGFLPGSEEEKMMPWLAAVTDTLEALHKHDHCTEGSLKYICDKANIQFKSINFMRGRSIQNAFVLLDECQNLTASQIKTIITRCGEGTKIVCSGNLAQIDSHYLTPVTSGLTYMVERFKNFEGSANIHLNGVVRSRLAEFAEENL
MSLKDFRPLILVAEDDDSNFKLIKAIIGKKCDILWAKNGEEMLNLYREHTQDAHAILMDIKMPIMNGLEATRIIREEGASLPIIMQTAYAFSSDRENAMQAGASEVLVKPITVSALRGCLSSYFPEIKWEGHHHHHH
MDVQQRLGGLLEITESRICLHCLGRHFVDLVEGPGNRLRGEKLQKKFSLKLSGPCMICGDVFDRIDEAAGMVKEKVDELGLEYSSVLVGTRLPPKMVELDDEIRKRLGIQTEGLKRDLNRELGKRVVKLLGCSAEFEDPDLVVMVDFRGDIRVWIQINPLFLEGRYRKLVRGIPQTRWPCRKCRGRGCERCNYTGKMYPTSVEELIAGPILEASQGRDARFHGSGREDVDVRMLGTGRPFVLEIREPRVRNLDPESLEEEVNRRAQGMVEVEGLRFSTRKRKVELKDSSQSRYKVYRALVELDGDVTDEDLERLGSLDIIKQRTPVRVSHRRADRVRERRVLEISWNLLDGCLELIIKGEGGLYIKELISGDSGRTEPSVSSVLGVPARCVALDVLEVGDEPSEKDLEHHHHHH
MSLSSARFDSSDRSAWYMGPVSRQEAQTRLQGQRHGMFLVRDSSTCPGDYVLSVSENSRVSHYIINSLPNRRFKIGDQEFDHLPALLEFYKIHYLDTTTLIEPAPRYPSPPMGSVSAPNLPTAEDNLEYVRTLYDFPGNDAEDLPFKKGEILVIIEKPEEQWWSARNKDGRVGMIPVPYVEKLVRSSPHGKHGNRNSNSYGIPEPAHAYAQPQTTTPLPAVSGSPGAAITPLPSTQNGPVFAKAIQKRVPCAYDKTALALEVGDIVKVTRMNINGQWEGEVNGRKGLFPFTHVKIFDPQNPDENEGHHHHHH
MPEHTKVSAEDQALLNKFARSYQTQTQLKADVKEAKTLIDNINEASDEILLLDDEDSASIPCRIGSCFVHFNGDSLNEHLEGKKTTAEKVLSEKTSELDAISADMEQIKKVLYAKFGDQINLDAEE
MKTTLFYIMFAYALSTAFPSMMLAQASSIAEVNQGQASKMVIDSSARVLSTLEQQRAQFRQDPKALRQFMETEFTTIFDRDYAARLVLGKYARNASDTDVKLFADAITENLMQRYGNALLTFEGKPNFRAKSESRLPGNRNVRVSTELIRSGADPVAVDYLLRNVNGQWKIFDVMIEGISYVQTFRNQFDAPLRQKGIAQVAAELRSGNLQVGKSNGKAAALEHHHHHH
